Test in all cases: cell-based or functional assay
Assay [1] concerns the target T1, human neuropeptide Y2 (NPY2) receptor (human, UniProt P49146 1-381).
T1 sequence (looked up): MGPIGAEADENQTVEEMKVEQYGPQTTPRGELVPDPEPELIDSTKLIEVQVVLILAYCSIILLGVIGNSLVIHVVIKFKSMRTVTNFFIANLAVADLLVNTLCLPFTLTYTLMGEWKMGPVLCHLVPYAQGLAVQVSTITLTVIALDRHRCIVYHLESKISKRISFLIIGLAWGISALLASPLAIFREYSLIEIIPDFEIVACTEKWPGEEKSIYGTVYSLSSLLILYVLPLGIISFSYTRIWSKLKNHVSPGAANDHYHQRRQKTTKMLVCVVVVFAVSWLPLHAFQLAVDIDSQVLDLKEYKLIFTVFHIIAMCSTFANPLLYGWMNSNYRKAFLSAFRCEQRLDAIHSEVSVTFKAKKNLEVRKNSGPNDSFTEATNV

The next assay addresses T2, human GIP receptor (human, UniProt P48546 22-466).
T2 sequence (looked up): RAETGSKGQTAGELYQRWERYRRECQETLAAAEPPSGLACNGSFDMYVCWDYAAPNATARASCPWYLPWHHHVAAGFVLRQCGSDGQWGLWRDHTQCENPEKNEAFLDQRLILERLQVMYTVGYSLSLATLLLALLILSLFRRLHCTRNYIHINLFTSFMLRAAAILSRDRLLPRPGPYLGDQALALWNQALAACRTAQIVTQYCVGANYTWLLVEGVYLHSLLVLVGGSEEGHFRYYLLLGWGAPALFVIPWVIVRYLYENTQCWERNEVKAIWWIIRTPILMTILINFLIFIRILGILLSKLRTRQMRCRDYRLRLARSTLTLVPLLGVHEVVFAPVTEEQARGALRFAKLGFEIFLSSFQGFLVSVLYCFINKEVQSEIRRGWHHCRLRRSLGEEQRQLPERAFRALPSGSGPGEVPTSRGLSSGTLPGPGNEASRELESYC

In the next assay the target is human GLP-1 receptor (human, UniProt P43220 24-463).

Where a chain is given by its changes, count along the chain named. Starred links: 1 amine or outer side, 2 acyl side, 3 side chain; linkers in the order of their positions; H or OH if unused. Non-standard residues stand in square brackets, D forms with d. Groups on a side chain read outwards from the residue. No end group written: not given here. *: point of attachment. C20 diacid = O=C(O)CCCCCCCCCCCCCCCCCCC(=O)*; γGlu = O=C(O)[C@H](CCC(=O)[*:2])N[*:1]; εLys = N[C@@H](CCCCN[*:1])C(=O)[*:2]; AEEA = NCCOCCOCC(=O)O; Aib = CC(C)(N)C(=O)O

Y[Aib]EGTFTSDYSI[Aib]LEKQAQ[Aib]AFVEWLIKGGPESPASLRHYYNWLTRQRY-NH2 (not fully specified (residue 28); also: TFA salt) [Compound 64]: the entries for the “EC50, CreLuc assay, 0.5% hP” value (in assay [1]; in the assay with human GIP receptor; with human GLP-1 receptor) were 17 nM, 0.18 nM and 0.29 nM, respectively. Further, the entries for the “EC50, CreLuc assay, 100% hP” value (in assay [1]; in the assay with human GIP receptor; with human GLP-1 receptor) were 95.3 nM, 2.37 nM and 11.2 nM, respectively.
As to Y[Aib]EGTFTSDYSI[Aib]LEKQAQ[Aib]AFVQWLIK([AEEA-AEEA-γGlu-γGlu-γGlu-γGlu-C20 diacid])GGPEEPASLRHYYNWLTRQRY-NH2 (also: TFA salt) [Compound 77], the “EC50, CreLuc assay, 0.5% hP” value in assay [1] came out at 13.7 nM; in the assay with human GIP receptor it was 0.32 nM; in the assay with human GLP-1 receptor, 0.24 nM. Besides, the “EC50, CreLuc assay, 100% hP” value stood at 46.3 nM in assay [1], 2.16 nM with human GIP receptor and 16.2 nM with human GLP-1 receptor.
For the molecule Y[Aib]EGTFTSDYSI[Aib]LEKQAQ[Aib]AFVEWLIK([εLys-Glu-γGlu-γGlu-γGlu-γGlu-C20 diacid])GGPSYYVSLRHYYNWLTRQRY-NH2 (also: TFA salt) [Compound 75], the results for the “EC50, CreLuc assay, 0.5% hP” value (in assay [1]; with human GIP receptor; with human GLP-1 receptor) were 7.12 nM, 0.54 nM and 0.35 nM, respectively. Moreover, the “EC50, CreLuc assay, 100% hP” value in assay [1] turned out to be 33.5 nM; with human GIP receptor, 12.4 nM; in the assay with human GLP-1 receptor it was 23.9 nM.
Regarding Y[Aib]EGTFTSDYSI[Aib]LEKQAQ[Aib]AFVEWLIK([εLys-γGlu-γGlu-γGlu-γGlu-γGlu-C20 diacid])GGPESPASLRHYYNWLTRQRY-NH2 (also: TFA salt) [Compound 70], the “EC50, CreLuc assay, 0.5% hP” value in assay [1] was 16.2 nM; with human GIP receptor, 0.28 nM; with human GLP-1 receptor, 0.3 nM. In addition, the “EC50, CreLuc assay, 100% hP” value is 67.2 nM in assay [1], 2.62 nM with human GIP receptor and 22.2 nM in the assay with human GLP-1 receptor.
Take Y[Aib]EGTFTSDYSI[Aib]LEKQAQ[Aib]AFVEWLIK([γGlu-γGlu-γGlu-γGlu-γGlu-γGlu-C20 diacid])GGGSEYVSLRHYYNWLTRQRY-NH2 (also: TFA salt) [Compound 65]: the “EC50, CreLuc assay, 0.5% hP” value in assay [1] came out at 10.9 nM; in the assay with human GIP receptor, 1.03 nM; with human GLP-1 receptor, 2.65 nM. Besides, the results for the “EC50, CreLuc assay, 100% hP” value (in assay [1]; with human GIP receptor; with human GLP-1 receptor) were 24.2 nM, 15.7 nM and 49.3 nM, respectively.
On to Y[Aib]EGTFTSDYSI[Aib]LEKQAQ[Aib]AFVQWLIK([εLys-γGlu-γGlu-γGlu-γGlu-γGlu-C20 diacid])GGPEEPASLRHYYNWLTRQRY-NH2 (also: TFA salt) [Compound 67], for which the results for the “EC50, CreLuc assay, 0.5% hP” value (in assay [1]; with human GIP receptor; in the assay with human GLP-1 receptor) were 13.7 nM, 0.29 nM and 0.38 nM, respectively. Moreover, the “EC50, CreLuc assay, 100% hP” value in assay [1] is 78.9 nM; with human GIP receptor, 6.18 nM; with human GLP-1 receptor it was 27.4 nM.

B1: Compound 66 (peptide)
peptide: YXEGTFTSDYSIXLEEEAQXAFVEWLIKGGPSSGASLRHYYNWLTRQRY
modifications: Aib at 2, 13, 20; K28 side chain: C20DA-gGlu-gGlu-gGlu-gGlu-gGlu-gGlu-eLys; C-terminal NH2
Consider B1, for which the “EC50, CreLuc assay, 0.5% hP” value in assay [1] was found to be 18.8 nM; with human GIP receptor, 0.64 nM; with human GLP-1 receptor, 0.24 nM. In addition, the “EC50, CreLuc assay, 100% hP” value was 85.6 nM in assay [1], 3.06 nM with human GIP receptor and 11.6 nM in the assay with human GLP-1 receptor.

B2: Compound 78 (peptide)
peptide: B1 peptide with E16K, E17Q, E24Q, S33E, G34Y, A35V
modifications: Aib at 2, 13, 20; K28 side chain: C20DA-gGlu-gGlu-gGlu-gGlu-gGlu-gGlu-eLys; C-terminal NH2
With B2, the “EC50, CreLuc assay, 0.5% hP” value in assay [1] was 12.9 nM; in the assay with human GIP receptor it was 0.53 nM; in the assay with human GLP-1 receptor, 0.64 nM. The “EC50, CreLuc assay, 100% hP” value came to 24.6 nM in assay [1], 6.64 nM in the assay with human GIP receptor and 12.2 nM with human GLP-1 receptor.

B3: Compound 8 (peptide)
peptide: B1 peptide with E17Q, E24Q, A35Q
modifications: Aib at 2, 13, 20; K28 side chain: C20DA-gGlu-Glu-gGlu-gGlu-gGlu-gGlu-eLys; C-terminal NH2
On to B3, for which the “EC50, CreLuc assay, 0.5% hP” value in assay [1] is 11.6 nM; with human GIP receptor, 0.12 nM; with human GLP-1 receptor, 0.04 nM. Also, the “EC50, CreLuc assay, 100% hP” value in assay [1] was 43 nM; with human GIP receptor, 1.72 nM; with human GLP-1 receptor, 1.05 nM.

B4: Compound 74 (peptide)
peptide: B1 peptide with E16K, E17Q, L37X
modifications: Aib at 2, 13, 20, 37; DTyr 49; K28 side chain: C20DA-gGlu-gGlu-gGlu-gGlu-gGlu-gGlu-eLys; C-terminal NH2
Regarding B4, the “EC50, CreLuc assay, 0.5% hP” value in assay [1] turned out to be 53.4 nM; in the assay with human GIP receptor, 0.1 nM; with human GLP-1 receptor, 0.08 nM. Besides, the figures for the “EC50, CreLuc assay, 100% hP” value (in assay [1]; with human GIP receptor; with human GLP-1 receptor) were 110 nM, 0.62 nM and 1.13 nM, respectively.

B5: Compound 9 (peptide)
peptide: B1 peptide with E16K, E17Q, G34Y, A35V, L37I
modifications: Aib at 2, 13, 20; K28 side chain: C20DA-gGlu-gGlu-gGlu-gGlu-gGlu-gGlu-eLys; C-terminal NH2
For the molecule B5, the “EC50, CreLuc assay, 0.5% hP” value in assay [1] was found to be 15.2 nM; with human GIP receptor, 0.21 nM; with human GLP-1 receptor, 0.46 nM. The “EC50, CreLuc assay, 100% hP” value in assay [1] came to 18.9 nM; with human GIP receptor, 2.03 nM; with human GLP-1 receptor it was 6.64 nM.

B6: Compound 68 (peptide)
peptide: B1 peptide with E16K, E17Q, W43R, L44X
modifications: Aib at 2, 13, 20, 44; K28 side chain: C20DA-gGlu-gGlu-gGlu-gGlu-gGlu-gGlu-eLys; C-terminal NH2
Regarding B6, the “EC50, CreLuc assay, 0.5% hP” value in assay [1] was 53.9 nM; with human GIP receptor, 0.32 nM; with human GLP-1 receptor, 0.12 nM. For the same molecule, the “EC50, CreLuc assay, 100% hP” value in assay [1] is 139 nM; in the assay with human GIP receptor, 2.05 nM; with human GLP-1 receptor, 2.19 nM.

B7: Compound 72 (peptide)
peptide: B1 peptide with E16K, E17Q, S36D, Y41L
modifications: Aib at 2, 13, 20; K28 side chain: C20DA-gGlu-gGlu-gGlu-gGlu-gGlu-gGlu-eLys; C-terminal NH2
As to B7, the “EC50, CreLuc assay, 0.5% hP” value stood at 29.1 nM in assay [1], 0.29 nM with human GIP receptor and 0.15 nM with human GLP-1 receptor. Also, the “EC50, CreLuc assay, 100% hP” value in assay [1] came out at 149 nM; with human GIP receptor it was 2.12 nM; with human GLP-1 receptor, 2.87 nM.

B8: Compound 76 (peptide)
peptide: B1 peptide with E16K, E17Q, L37X, Y41X
modifications: Aib at 2, 13, 20, 37, 41; K28 side chain: C20DA-gGlu-gGlu-Glu-gGlu-gGlu-gGlu-eLys; C-terminal NH2
Turning to B8, the “EC50, CreLuc assay, 0.5% hP” value in assay [1] was 31.5 nM; with human GIP receptor, 0.2 nM; in the assay with human GLP-1 receptor it was 0.1 nM. The results for the “EC50, CreLuc assay, 100% hP” value (in assay [1]; with human GIP receptor; in the assay with human GLP-1 receptor) were 158 nM, 1.39 nM and 1.91 nM, respectively.

B9: Compound 73 (peptide)
peptide: B1 peptide with E16K, E17Q, G34P, A35E
modifications: Aib at 2, 13, 20; K28 side chain: C20DA-gGlu-gGlu-gGlu-gGlu-gGlu-gGlu-eLys; C-terminal NH2
On to B9, for which the “EC50, CreLuc assay, 0.5% hP” value is 32.2 nM in assay [1], 0.11 nM with human GIP receptor and 0.19 nM with human GLP-1 receptor. Further, the “EC50, CreLuc assay, 100% hP” value in assay [1] came out at 107 nM; with human GIP receptor, 1.61 nM; with human GLP-1 receptor, 4.76 nM.

B10: Compound 69 (peptide)
peptide: B1 peptide with E16K, A18K
modifications: Aib at 2, 13, 20; K28 side chain: C20DA-gGlu-gGlu-gGlu-gGlu-gGlu-gGlu-eLys; C-terminal NH2
Regarding B10, the “EC50, CreLuc assay, 0.5% hP” value turned out to be 8.41 nM in assay [1], 0.8 nM with human GIP receptor and 1.48 nM with human GLP-1 receptor. In addition, the “EC50, CreLuc assay, 100% hP” value came out at 26.6 nM in assay [1], 2.95 nM in the assay with human GIP receptor and 27.8 nM in the assay with human GLP-1 receptor.

B11: Compound 71 (peptide)
peptide: B1 peptide with E16K, E17Q, R46X
modifications: Aib at 2, 13, 20; hArg 46; DTyr 49; K28 side chain: C20DA-gGlu-gGlu-gGlu-gGlu-gGlu-gGlu-eLys; C-terminal NH2
Consider B11, for which the entries for the “EC50, CreLuc assay, 0.5% hP” value (in assay [1]; with human GIP receptor; with human GLP-1 receptor) were over 100 nM, 0.13 nM and 0.14 nM, respectively. The “EC50, CreLuc assay, 100% hP” value in assay [1] was over 1000 nM; with human GIP receptor, 0.64 nM; in the assay with human GLP-1 receptor, 1.13 nM.

B12: Compound 2 (peptide)
peptide: YXEGTFTSDYSIXLEKQAQXAFVEWLIKGGPSSGIELRHFLNHLTRQRY
modifications: Aib at 2, 13, 20; K28 side chain: C20DA-gGlu-gGlu-gGlu-gGlu-gGlu-gGlu-eLys; C-terminal NH2
In the case of B12, the “EC50, CreLuc assay, 0.5% hP” value was over 100 nM in assay [1], 0.35 nM in the assay with human GIP receptor and 0.1 nM with human GLP-1 receptor. Also, the “EC50, CreLuc assay, 100% hP” value in assay [1] was 564 nM; with human GIP receptor, 1.56 nM; with human GLP-1 receptor, 1.39 nM.
